Common to all, as to assay: LC-MS of MeFox formation, initial rates, Michaelis-Menten fit
Conditions in all cases: 50 mM sodium phosphate pH 7.0, 10 mM beta-mercaptoethanol, 30 °C, 0.5 µM protein

The target in data set [1] is T1, SbGFT (Sorghum bicolor, UniProt C5WU82).
T1 construct: gene SORBI_3001G181300; synthetic gene, C-terminal 6xHis tag, E. coli BL21(DE3); monomer; 317 residues (apo crystal: A6-D317, C260S/C314S)
T1 sequence (C5WU82 1-317): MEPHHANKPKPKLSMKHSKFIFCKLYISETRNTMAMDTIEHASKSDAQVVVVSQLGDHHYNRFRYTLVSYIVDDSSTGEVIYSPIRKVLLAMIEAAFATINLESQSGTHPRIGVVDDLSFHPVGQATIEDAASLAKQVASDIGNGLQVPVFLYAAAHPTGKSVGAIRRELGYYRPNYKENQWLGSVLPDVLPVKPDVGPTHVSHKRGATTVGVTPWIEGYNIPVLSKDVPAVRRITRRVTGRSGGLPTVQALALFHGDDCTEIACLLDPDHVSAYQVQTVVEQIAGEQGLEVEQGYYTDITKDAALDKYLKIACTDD
It counts as biochemical.

Substrate in data set [2]: CN1c2c(nc(N)[nH]c2=O)NC[C@@H]1CNc1ccc(C(=O)N[C@@H](CCC(=O)O)C(=O)O)cc1
It counts as biochemical, Zea mays.

Substrate in data set [3]: CN1c2c(nc(N)[nH]c2=O)NC[C@@H]1CNc1ccc(C(=O)N[C@@H](CCC(=O)O)C(=O)O)cc1
It counts as biochemical, Zea mays. From the text:
LC-MS of MeFox formation, initial rates, Michaelis-Menten fit on ZmGFT-Qi319 | reduced approximately by sixfold for the mutant ZmGFT‐Qi319^G232N
This is another data set of the same source.

Changes are numbered by the printed parent chain. Numbers in names are those of the source.

This note sets out measurements from paper PMC12622545, “An Allele of Glutamate Formiminotransferase Triggers 5‐Methyl‐Tetrahydrofolate‐to‐MeFox Conversion and Facilitates Folate Biofortification in Maize” (Advanced Science, 2025).

The Km is the concentration of substrate that gives half-maximal velocity. By kcat is commonly meant the maximal rate divided by the concentration of active sites. The kcat/Km is the turnover number divided by the Michaelis constant.

`CN1c2c(nc(N)[nH]c2=O)NC[C@@H]1CNc1ccc(C(=O)N[C@@H](CCC(=O)O)C(=O)O)cc1` [5-M-THF]: the K m entry in data set [1] is “Converting analysis of wild‐type SbGFT and its mutant SbGFT^G219N”.

B1: ZmGFT-Qi319 (Zea mays) (protein)
chain: MEPHHANKPKPRPKLSAKHSKFISCKLYISESRNATAVDAVERASKSDPQVVVVSQFGDHHYNRFRYTLVSYIVVDDGGGGGSSAAGEATVVVHSPIRKVLLAMIEAAFSSIDLESQSGAHPRMGVVDDLSFHPVGQATVEDAASLARQVASDIACIAAVPVFLYAAAHPAGKSVGAVRRELGYYRPNYRGNQWSGSVLPDVLPVKPDVGPAHVVSHKRGATTVGVTPWIEGYNVPVLCKDVATVRRITRGVTGRSGGLPTVQALALFHGDDCTEIACLLDPDHASAYQVQTVVEQIAGDQGLEVEQGYYTDITKDEALDKYLKIACADD
notes: natural allele; C-terminal 10xHis tag, modified pFastBac1, Sf-9 insect cells; monomer
In the case of B1, in data set [2], the Michaelis-Menten constant (Km) is 153.1 ± 38.2 µM, the catalytic constant (kcat) came to 0.0317 ± 0.00167 s⁻¹ and the catalytic efficiency (kcat/Km) is 207 M⁻¹ s⁻¹.

B2: ZmGFT-Qi319 (Zea mays; G232N) (protein)
chain: B1 chain with G232N
notes: as for B1
For B2, in data set [3], the Km turned out to be 2209.0 ± 1046.0 µM, the turnover number (kcat) was 0.075 ± 0.0533 s⁻¹ and the kcat/Km was found to be 34 M⁻¹ s⁻¹.

B3: ZmGFT-B73 (Zea mays) (protein)
chain: MEPHHANKPRPKLSATKHSKFISCKLYISESRNATAVDAVERASKSDPQVVVVSQFGDHHYNRFRYTLVSYIVVVDGGGSSAAGEATVVHSPIRKVLLAMIEAAFSSIDLESQSGAHPRIGVVDDLSFHPVGQATIEDAASLARQVASDIACIAAVPVFLYAAAHPAGKSVGAVRRELGYYRPNYRGNQWSGSVLPNVLPVKPDVGPAHVVSHKRGATTVGVTPWIENYNVPVLCKDVATVRRITRGVTGRSGGLPTVQALALFHGDDCTEIACLLDPDHASAYQVQTVVEQIAGDQGLEVEQGYYTDITKDEALDKYLKIACADD
notes: C-terminal 10xHis tag, modified pFastBac1, Sf-9 insect cells; monomer; annotated 326 residues; Asn228
For B3, in data set [2], the Km is 3108.0 ± 2675.5 µM, the catalytic constant (kcat) was 0.0783 ± 0.055 s⁻¹ and the kcat/Km amounted to 25.2 M⁻¹ s⁻¹.

B4: ZmGFT-B73 (Zea mays; N228G) (protein)
chain: B3 chain with N228G
notes: as for B3
As to B4, in data set [2], the Michaelis constant (Km) was 888.0 ± 490.3 µM, the catalytic constant (kcat) is 0.09 ± 0.0233 s⁻¹ and the kcat/Km was 101 M⁻¹ s⁻¹.
